Ends that are not written are not given here.
Key:
Format in all cases: binding
[1] = target: T1, CUL4B (Homo sapiens, UniProt Q13620, L520D/V516R); test: Naive Library Presenter Screening (phage, NGS), CUL4B; settings: for interaction data at Target Concentration 10: CUL4B target concentration 10 nM; for interaction data at Target Concentration 30: CUL4B target concentration 30 nM; for interaction data at Target Concentration 100: CUL4B target concentration 100 nM; for interaction data at Target Concentration 300: CUL4B target concentration 300 nM; for interaction data at Target Concentration 1000: CUL4B target concentration 1000 nM
T1 construct: GST-TEV (N, cleaved yes); made in house; host or cells: E. coli BL21 CodonPlus
T1 sequence (Q13620 206-557 V516R/L520D): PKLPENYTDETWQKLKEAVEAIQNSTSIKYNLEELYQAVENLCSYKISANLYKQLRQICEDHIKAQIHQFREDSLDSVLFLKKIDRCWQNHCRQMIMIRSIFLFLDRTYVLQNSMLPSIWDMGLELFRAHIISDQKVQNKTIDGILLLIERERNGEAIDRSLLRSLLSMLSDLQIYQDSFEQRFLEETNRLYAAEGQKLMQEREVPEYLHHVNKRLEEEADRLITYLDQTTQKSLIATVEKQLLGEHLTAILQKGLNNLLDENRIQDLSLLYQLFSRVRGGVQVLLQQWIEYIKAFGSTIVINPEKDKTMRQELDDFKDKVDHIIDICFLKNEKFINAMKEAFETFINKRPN

[2] = target: T2, CUL1 (Homo sapiens, UniProt Q13616, L371D/V367R); test: Naive Library Presenter Screening (phage, NGS), CUL1; settings: for interaction data at Target Concentration 10: CUL1 target concentration 10 nM; for interaction data at Target Concentration 30: CUL1 target concentration 30 nM; for interaction data at Target Concentration 100: CUL1 target concentration 100 nM; for interaction data at Target Concentration 300: CUL1 target concentration 300 nM; for interaction data at Target Concentration 1000: CUL1 target concentration 1000 nM
T2 construct: CUL1 (Uniprot ID: Q13616, residue 15-410, V367R/L371D); GST-TEV (N, cleaved yes); made in house; host or cells: E. coli BL21 CodonPlus

[3] = target: T3, CUL5 (Homo sapiens, UniProt Q93034, L345D/V341R); test: Naive Library Presenter Screening (phage, NGS), CUL5; settings: for interaction data at Target Concentration 10: CUL5 target concentration 10 nM; for interaction data at Target Concentration 30: CUL5 target concentration 30 nM; for interaction data at Target Concentration 100: CUL5 target concentration 100 nM; for interaction data at Target Concentration 300: CUL5 target concentration 300 nM; for interaction data at Target Concentration 1000: CUL5 target concentration 1000 nM
T3 construct: GST-TEV (N, cleaved yes); made in house; host or cells: E. coli BL21 CodonPlus
T3 sequence (Q93034 1-386 V341R/L345D): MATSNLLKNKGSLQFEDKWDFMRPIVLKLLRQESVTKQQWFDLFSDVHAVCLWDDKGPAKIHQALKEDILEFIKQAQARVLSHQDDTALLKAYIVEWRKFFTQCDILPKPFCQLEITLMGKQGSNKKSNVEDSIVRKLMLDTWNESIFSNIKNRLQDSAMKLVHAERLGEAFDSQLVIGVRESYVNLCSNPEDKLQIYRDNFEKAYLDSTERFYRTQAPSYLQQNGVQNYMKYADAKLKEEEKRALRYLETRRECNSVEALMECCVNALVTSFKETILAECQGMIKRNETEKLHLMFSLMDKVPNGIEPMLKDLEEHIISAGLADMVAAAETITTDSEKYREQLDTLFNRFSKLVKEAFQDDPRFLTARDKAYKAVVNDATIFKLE

T2 sequence (Q13616 15-410 V367R/L371D): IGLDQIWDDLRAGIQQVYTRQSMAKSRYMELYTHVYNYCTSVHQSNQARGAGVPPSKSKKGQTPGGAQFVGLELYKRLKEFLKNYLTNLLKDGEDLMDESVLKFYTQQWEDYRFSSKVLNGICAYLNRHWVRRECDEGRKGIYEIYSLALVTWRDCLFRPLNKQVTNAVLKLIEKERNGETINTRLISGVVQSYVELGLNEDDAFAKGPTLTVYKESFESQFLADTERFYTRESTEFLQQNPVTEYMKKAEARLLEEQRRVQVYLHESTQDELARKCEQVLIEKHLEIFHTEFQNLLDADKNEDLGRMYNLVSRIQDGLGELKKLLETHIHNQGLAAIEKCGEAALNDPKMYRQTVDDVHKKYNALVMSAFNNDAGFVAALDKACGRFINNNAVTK

Sequence	interaction data at Target Concentration 10 [1]	interaction data at Target Concentration 30 [1]	interaction data at Target Concentration 100 [1]	interaction data at Target Concentration 300 [1]	interaction data at Target Concentration 1000 ([1]; first column)	interaction data at Target Concentration 1000 ([1]; second column)	interaction data at Target Concentration 10 [2]	interaction data at Target Concentration 30 [2]	interaction data at Target Concentration 100 [2]	interaction data at Target Concentration 300 [2]	interaction data at Target Concentration 1000 ([2]; first column)	interaction data at Target Concentration 1000 ([2]; second column)	also measured
DPADRLCELAAWVCQSF	0	0	0	48	9	0	–	–	–	–	–	–	–
DPADRQCIFAAWMCEAF	0	0	3	9	34	0	–	–	–	–	–	–	–
DPADRQCLFAAWYCEHT	0	10	0	6	11	2	–	–	–	–	–	–	–
DPADRWCELAAWICDEF	0	0	0	6	17	0	–	–	–	–	–	–	–
DPADRYCDMAAWVCERF	1	1	15	248	340	0	–	–	–	–	–	–	–
DPAEAACDIAALMCIID	–	–	–	–	–	–	15	13	65	211	203	195	–
DPAEFVCDWAALACLVD	–	–	–	–	–	–	4	32	183	247	517	300	–
DPAEMQCDYAAILCIVR	–	–	–	–	–	–	0	0	32	95	114	71	–
DPAEQECDHAALWCIVA	–	–	–	–	–	–	14	19	340	937	1137	743	–
DPAEQMCDIAAVWCLAH	–	–	–	–	–	–	0	0	35	135	151	88	–
DPAERHCQLAAWVCHQF	0	0	0	99	29	0	–	–	–	–	–	–	–
DPAEVHCDMAALYCIIR	–	–	–	–	–	–	3	7	65	242	366	119	–
DPAIIQCDQAALWCVVT	–	–	–	–	–	–	0	0	28	83	80	61	–
DPAMLQCDMAALWCMVS	–	–	–	–	–	–	1	3	77	64	143	126	–
DPAMNHCVLAAWVCDTF	0	0	6	37	9	0	–	–	–	–	–	–	–
DPAQILCDLAALYCVVE	–	–	–	–	–	–	0	7	61	73	111	119	–
DPAQRACQFAAWICERF	1	0	13	56	73	0	–	–	–	–	–	–	–
DPASRLCELAAWVCDSF	4	15	139	319	251	0	–	–	–	–	–	–	–
DPASRMCEMAAWFCENY	0	3	11	13	78	0	–	–	–	–	–	–	–
DPATRHCIFAAWACDRF	0	0	47	20	12	0	–	–	–	–	–	–	–
DPATRMCELAAWTCEVW	0	0	1	31	9	0	–	–	–	–	–	–	–
DPATTECILAAWICDRF	0	0	15	31	18	0	–	–	–	–	–	–	–
DPAWQWCAEAAWQCITH (not fully specified (C-terminus, bridges); cysteine pairing not given here)	–	–	–	–	–	–	–	–	–	–	–	–	interaction data at Target Concentration 10 [3]: 14; interaction data at Target Concentration 30 [3]: 59; interaction data at Target Concentration 100 [3]: 284; interaction data at Target Concentration 300 [3]: 284; interaction data at Target Concentration 1000 ([3]; first column): 265; interaction data at Target Concentration 1000 ([3]; second column): 0
DPAWRACAQAAWDCIIA	–	–	–	–	–	–	–	–	–	–	–	–	interaction data at Target Concentration 10 [3]: 1; interaction data at Target Concentration 30 [3]: 167; interaction data at Target Concentration 100 [3]: 267; interaction data at Target Concentration 300 [3]: 385; interaction data at Target Concentration 1000 ([3]; first column): 368; interaction data at Target Concentration 1000 ([3]; second column): 0
DPAWRECAHAAWQCYIQ	–	–	–	–	–	–	–	–	–	–	–	–	interaction data at Target Concentration 10 [3]: 0; interaction data at Target Concentration 30 [3]: 50; interaction data at Target Concentration 100 [3]: 47; interaction data at Target Concentration 300 [3]: 21; interaction data at Target Concentration 1000 ([3]; first column): 93; interaction data at Target Concentration 1000 ([3]; second column): 0
DPAWWECAEAAWQCQVL	–	–	–	–	–	–	–	–	–	–	–	–	interaction data at Target Concentration 10 [3]: 0; interaction data at Target Concentration 30 [3]: 6; interaction data at Target Concentration 100 [3]: 44; interaction data at Target Concentration 300 [3]: 20; interaction data at Target Concentration 1000 ([3]; first column): 59; interaction data at Target Concentration 1000 ([3]; second column): 0
DPAWYECASAAWVCYSM	–	–	–	–	–	–	–	–	–	–	–	–	interaction data at Target Concentration 10 [3]: 0; interaction data at Target Concentration 30 [3]: 13; interaction data at Target Concentration 100 [3]: 94; interaction data at Target Concentration 300 [3]: 60; interaction data at Target Concentration 1000 ([3]; first column): 171; interaction data at Target Concentration 1000 ([3]; second column): 0
DPAYYVCAEAAWNCLFE	–	–	–	–	–	–	–	–	–	–	–	–	interaction data at Target Concentration 10 [3]: 4; interaction data at Target Concentration 30 [3]: 46; interaction data at Target Concentration 100 [3]: 104; interaction data at Target Concentration 300 [3]: 100; interaction data at Target Concentration 1000 ([3]; first column): 76; interaction data at Target Concentration 1000 ([3]; second column): 0

Reference: US20240376151A1, “STAPLED PEPTIDES AND METHODS THEREOF” (FOG PHARMACEUTICALS, INC., priority 2022, published 2024)
